The text below walks through data of paper PMC5290284, “Portal protein functions akin to a DNA-sensor that couples genome-packaging to icosahedral capsid maturation” (Nature Communications, 2017).

Series [1] deals with T1, P22 MV-portal rings coupled to CNBr-activated Sepharose beads (bacteriophage P22, UniProt P26744 1-725).
T1 construct: Portal protein (gp1) of bacteriophage P22; Mature virion conformation; also called MV-portal protein; MV-portal beads; source: E. coli BL21 (DE3), purified (Ni-agarose, Superose 12); copies: 12
T1 sequence (looked up): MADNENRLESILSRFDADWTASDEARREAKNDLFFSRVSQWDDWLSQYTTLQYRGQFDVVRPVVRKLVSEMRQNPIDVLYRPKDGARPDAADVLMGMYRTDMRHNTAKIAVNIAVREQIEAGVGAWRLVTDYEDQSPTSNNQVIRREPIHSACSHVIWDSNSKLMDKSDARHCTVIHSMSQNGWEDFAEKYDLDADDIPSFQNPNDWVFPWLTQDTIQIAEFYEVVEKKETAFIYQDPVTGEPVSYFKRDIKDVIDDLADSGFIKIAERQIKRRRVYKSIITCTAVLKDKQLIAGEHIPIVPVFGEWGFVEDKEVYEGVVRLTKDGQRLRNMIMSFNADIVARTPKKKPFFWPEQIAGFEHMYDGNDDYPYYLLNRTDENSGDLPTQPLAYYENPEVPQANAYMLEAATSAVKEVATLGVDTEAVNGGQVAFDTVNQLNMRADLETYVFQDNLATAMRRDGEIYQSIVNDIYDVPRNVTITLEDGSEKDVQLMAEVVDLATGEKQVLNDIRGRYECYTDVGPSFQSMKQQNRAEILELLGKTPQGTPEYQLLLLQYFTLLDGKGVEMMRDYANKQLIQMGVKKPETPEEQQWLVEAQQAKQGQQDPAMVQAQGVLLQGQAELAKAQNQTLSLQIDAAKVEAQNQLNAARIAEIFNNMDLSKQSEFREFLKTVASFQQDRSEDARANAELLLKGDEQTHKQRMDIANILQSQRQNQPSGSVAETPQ
The series is described as follows: pull-down; PC- or MV-portal rings immobilized on CNBr-activated Sepharose 4B beads; soluble protein added (L-terminase pre-complexed with non-hydrolyzable ATP); bound and unbound fractions on SDS–PAGE. To be noted: both partners purified.

For series [2], the target named is T2, P22 PC-portal rings coupled to CNBr-activated Sepharose beads (bacteriophage P22, UniProt P26744 1-725).
T2 construct: Portal protein (gp1) of bacteriophage P22; Procapsid conformation; also called PC-portal protein; PC-portal beads; source: E. coli BL21 (DE3), purified (Ni-NTA, Superose 6); copies: 12
T2 sequence (looked up): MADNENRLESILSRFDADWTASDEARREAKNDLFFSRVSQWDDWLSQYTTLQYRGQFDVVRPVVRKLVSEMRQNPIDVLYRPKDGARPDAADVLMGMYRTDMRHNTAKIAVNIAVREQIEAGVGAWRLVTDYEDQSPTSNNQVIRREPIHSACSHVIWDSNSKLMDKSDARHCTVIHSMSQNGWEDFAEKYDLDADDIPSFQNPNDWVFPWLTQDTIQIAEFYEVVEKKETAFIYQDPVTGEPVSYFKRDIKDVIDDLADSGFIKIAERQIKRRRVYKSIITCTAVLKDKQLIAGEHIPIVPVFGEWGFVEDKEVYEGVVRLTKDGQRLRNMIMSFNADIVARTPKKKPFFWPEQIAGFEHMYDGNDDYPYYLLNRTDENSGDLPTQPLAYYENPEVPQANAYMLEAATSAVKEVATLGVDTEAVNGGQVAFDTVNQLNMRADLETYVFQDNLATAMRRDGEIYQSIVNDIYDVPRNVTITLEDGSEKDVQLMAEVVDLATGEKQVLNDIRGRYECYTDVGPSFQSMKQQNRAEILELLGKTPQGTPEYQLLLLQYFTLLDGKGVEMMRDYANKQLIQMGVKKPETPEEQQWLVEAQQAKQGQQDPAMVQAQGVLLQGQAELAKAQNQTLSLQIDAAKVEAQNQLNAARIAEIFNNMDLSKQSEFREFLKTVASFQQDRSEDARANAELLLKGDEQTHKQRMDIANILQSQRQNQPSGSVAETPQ
The series is described as above. To be noted: both partners purified.

Series [3] deals with the molecule itself. The series is described as follows: crystal structure; PC-portal core at 10 mg/ml, 5% PEG 8,000, 10 mM caesium chloride, pH 5.6, 22 °C; 3.30 Å; whole dodecamer in the asymmetric unit.

B1: P22 tail factor gp4 (natural protein, bacteriophage P22, UniProt P26746 1-166, looked up)
chain: MQIKTKGDLVRAALRKLGVASDATLTDVEPQSMQDAVDDLEAMMAEWYQDGKGIITGYVFSDDENPPAEGDDHGLRSSAVSAVFHNLACRIAPDYALEATAKIIATAKYGKELLYKQTAISRAKRAPYPSRMPTGSGNSFANLNEWHYFPGEQNADSTTPHDEGNG
notes: Tail factor gp4 of bacteriophage P22; source: E. coli BL21 (DE3), purified (Ni-agarose, Superdex 75)
Regarding B1, the “stoichiometry N” value in series [1] is 11 ± 1 gp4 equivalents; in series [2] it was 11.4 ± 1 gp4 equivalents.

B2: P22 PC-portal protein core (res. 1–602), procapsid conformation (domain or fragment, bacteriophage P22, UniProt P26744 1-602, looked up)
chain: MADNENRLESILSRFDADWTASDEARREAKNDLFFSRVSQWDDWLSQYTTLQYRGQFDVVRPVVRKLVSEMRQNPIDVLYRPKDGARPDAADVLMGMYRTDMRHNTAKIAVNIAVREQIEAGVGAWRLVTDYEDQSPTSNNQVIRREPIHSACSHVIWDSNSKLMDKSDARHCTVIHSMSQNGWEDFAEKYDLDADDIPSFQNPNDWVFPWLTQDTIQIAEFYEVVEKKETAFIYQDPVTGEPVSYFKRDIKDVIDDLADSGFIKIAERQIKRRRVYKSIITCTAVLKDKQLIAGEHIPIVPVFGEWGFVEDKEVYEGVVRLTKDGQRLRNMIMSFNADIVARTPKKKPFFWPEQIAGFEHMYDGNDDYPYYLLNRTDENSGDLPTQPLAYYENPEVPQANAYMLEAATSAVKEVATLGVDTEAVNGGQVAFDTVNQLNMRADLETYVFQDNLATAMRRDGEIYQSIVNDIYDVPRNVTITLEDGSEKDVQLMAEVVDLATGEKQVLNDIRGRYECYTDVGPSFQSMKQQNRAEILELLGKTPQGTPEYQLLLLQYFTLLDGKGVEMMRDYANKQLIQMGVKKPETPEEQQWLVEAQQAKQG
notes: Portal protein (gp1) of bacteriophage P22, core, residues 1–602; Asymmetric dodecamer; also called PC-portal core; portal-602; copies: 12
On to B2, for which the “stoichiometry N” value in series [3] amounted to 12 protomers.
